In paper PMC9529537 (The Innovation, 2022):

Molecular target: E protein on YFV virions (Yellow fever virus, strain of the …)
Assay: flow cytometry on cells

Row | Binder | binding result
1 | YD73 human monoclonal antibody, full-length IgG1 (antibody, V domains shown) VH: QVQLVQSGAEVKKPGASVKVSCKASGYTFIAYGISWVRQAPGQGLEWMGWISAHNGNTNYAQKFQGRVTVTTDTTTRTAFMELRNLRSDDTAVYYCARAPWEYNYRSSGYYDSPYWGQGTLVTVSS VL: EIVLTQSPGTLSLSPGERATLSCRASQSVVSTYLAWYQQKPGQAPRLLIYDTSTRATGIPDRFSGSGSGTDFTLTISRLEPEDFAVYYCQHYDSSPPWTFGQGTKVEIK | binds
2 | YD6 human monoclonal antibody, full-length IgG1 (antibody, V domains shown) VH: EVQLVESGGGLVKPGGSLRLSCAASGFIFSDYYMMWIRQAPGKGLEWISYISSSGSQIYYTESVKGRFTISRDNGKNLLYLQMNSLRGEDTALYYCATETGWRIDTWGQGTLVTVSS VL: QAVLTQPASVSGSPGQSITISCTGTGSNIETYNLVSWYQRHPGKAPKLILYEVSERPSGVSNRFSGSKSGNTASLTISGLQAEDEADYFCCSYADTNIFWVFGGGTHLTVL | binds
